The numbers were not newly measured in paper PMC12055905, which cites them from elsewhere.

The series deals with SARS-CoV-2 spike RBD (SARS-CoV-2) (UniProt P0DTC2).

As to HBD-2 (from UniProt O15263), the Kd was 300 nM.
